{"source": "the Human Domainome abundance scans (Beltran et al. 2025)", "parents": {"B1": {"name": "POU domain, class 3, transcription factor 2, residues 262 to 338; numbered along this chain, P20265 (parent)", "chain": "EDTPTSDDLEQFAKQFKQRRIKLGFTQADVGLALGTLYGNVFSQTTICRFEALQLSFKNMCKLKPLLNKWLEEADSS"}}, "note": "± gives the uncertainty stated by the source.", "data": [{"variants_of": "B1", "assay": "abundance fitness (aPCA) (normalised: wild type 0, dead -1); higher = more abundant; growth selection in yeast, the domain comes from the species named", "conditions": "Homo sapiens", "values": [{"variant": "Q54Y", "abundance fitness": "-0.726 ± 0.27"}, {"variant": "Q54L", "abundance fitness": "-0.316 ± 0.049"}, {"variant": "Q54N", "abundance fitness": "-0.113 ± 0.081"}, {"variant": "Q54T", "abundance fitness": "-0.068 ± 0.054"}, {"variant": "Q54R", "abundance fitness": "-0.156 ± 0.035"}, {"variant": "Q54F", "abundance fitness": "-0.933 ± 0.37"}, {"variant": "D2K", "abundance fitness": "-0.031 ± 0.051"}, {"variant": "D2P", "abundance fitness": "-0.153 ± 0.052"}, {"variant": "D2V", "abundance fitness": "-0.176 ± 0.03"}, {"variant": "Y38F", "abundance fitness": "-0.036 ± 0.061"}, {"variant": "Y38H", "abundance fitness": "-0.029 ± 0.077"}, {"variant": "Y38P", "abundance fitness": "-0.36 ± 0.058"}, {"variant": "Y38V", "abundance fitness": "-0.103 ± 0.033"}, {"variant": "Y38T", "abundance fitness": "0.032 ± 0.039"}, {"variant": "Y38K", "abundance fitness": "-0.234 ± 0.05"}, {"variant": "Y38C", "abundance fitness": "-0.065 ± 0.05"}, {"variant": "F57V", "abundance fitness": "-0.033 ± 0.028"}, {"variant": "F57P", "abundance fitness": "-0.063 ± 0.046"}, {"variant": "F57W", "abundance fitness": "-0.169 ± 0.031"}, {"variant": "F57S", "abundance fitness": "-0.053 ± 0.033"}, {"variant": "F57H", "abundance fitness": "-0.015 ± 0.06"}, {"variant": "F57G", "abundance fitness": "-0.246 ± 0.028"}, {"variant": "F57M", "abundance fitness": "-0.046 ± 0.039"}, {"variant": "K17G", "abundance fitness": "-0.6 ± 0.029"}, {"variant": "K17N", "abundance fitness": "-0.895 ± 0.22"}, {"variant": "K17Q", "abundance fitness": "-0.025 ± 0.039"}, {"variant": "K17P", "abundance fitness": "-0.658 ± 0.087"}, {"variant": "K17S", "abundance fitness": "-0.279 ± 0.035"}, {"variant": "L32W", "abundance fitness": "-0.015 ± 0.17"}, {"variant": "L32V", "abundance fitness": "-0.448 ± 0.34"}, {"variant": "N68A", "abundance fitness": "-0.007 ± 0.077"}, {"variant": "N68Q", "abundance fitness": "-0.313 ± 0.43"}, {"variant": "N68L", "abundance fitness": "0.004 ± 0.07"}, {"variant": "N68M", "abundance fitness": "-0.284 ± 0.27"}, {"variant": "N68C", "abundance fitness": "-0.096 ± 0.13"}, {"variant": "N68G", "abundance fitness": "0.074 ± 0.065"}, {"variant": "I21V", "abundance fitness": "-0.058 ± 0.031"}, {"variant": "I21T", "abundance fitness": "-0.179 ± 0.053"}, {"variant": "I21M", "abundance fitness": "0.01 ± 0.039"}, {"variant": "I21P", "abundance fitness": "-0.805 ± 0.12"}, {"variant": "I21C", "abundance fitness": "-0.204 ± 0.05"}, {"variant": "I21D", "abundance fitness": "-0.567 ± 0.094"}, {"variant": "F50P", "abundance fitness": "-0.756 ± 0.085"}, {"variant": "F50Q", "abundance fitness": "-0.624 ± 0.079"}, {"variant": "F50E", "abundance fitness": "-0.85 ± 0.091"}, {"variant": "F50A", "abundance fitness": "-0.763 ± 0.065"}, {"variant": "W70A", "abundance fitness": "-0.519 ± 0.048"}, {"variant": "W70L", "abundance fitness": "-0.502 ± 0.043"}, {"variant": "W70G", "abundance fitness": "-0.754 ± 0.041"}, {"variant": "W70N", "abundance fitness": "-0.358 ± 0.18"}, {"variant": "W70H", "abundance fitness": "-0.943 ± 0.21"}, {"variant": "W70C", "abundance fitness": "-0.698 ± 0.11"}, {"variant": "E10T", "abundance fitness": "-0.103 ± 0.044"}, {"variant": "E10Y", "abundance fitness": "0.054 ± 0.05"}, {"variant": "E10C", "abundance fitness": "-0.01 ± 0.05"}, {"variant": "E10D", "abundance fitness": "-0.259 ± 0.057"}, {"variant": "E10G", "abundance fitness": "-0.223 ± 0.028"}, {"variant": "E10M", "abundance fitness": "0.008 ± 0.038"}, {"variant": "L63D", "abundance fitness": "-0.785 ± 0.11"}, {"variant": "L63S", "abundance fitness": "-0.668 ± 0.059"}, {"variant": "L63C", "abundance fitness": "-0.399 ± 0.05"}, {"variant": "L63E", "abundance fitness": "-0.803 ± 0.09"}, {"variant": "L63A", "abundance fitness": "-0.665 ± 0.051"}, {"variant": "L67S", "abundance fitness": "-0.619 ± 0.13"}, {"variant": "L67K", "abundance fitness": "-0.688 ± 0.18"}, {"variant": "L67M", "abundance fitness": "0.006 ± 0.085"}, {"variant": "L67V", "abundance fitness": "-0.525 ± 0.099"}, {"variant": "L67E", "abundance fitness": "-0.936 ± 0.27"}, {"variant": "F16E", "abundance fitness": "-0.618 ± 0.058"}, {"variant": "F16M", "abundance fitness": "-0.606 ± 0.063"}, {"variant": "F16G", "abundance fitness": "-0.818 ± 0.044"}, {"variant": "F16Y", "abundance fitness": "-0.767 ± 0.15"}, {"variant": "N59K", "abundance fitness": "-0.022 ± 0.039"}, {"variant": "N59R", "abundance fitness": "0.059 ± 0.029"}, {"variant": "N59V", "abundance fitness": "0.041 ± 0.033"}, {"variant": "N59G", "abundance fitness": "-0.13 ± 0.029"}, {"variant": "N59I", "abundance fitness": "0.092 ± 0.079"}, {"variant": "N59L", "abundance fitness": "0.029 ± 0.042"}, {"variant": "N59Q", "abundance fitness": "-0.001 ± 0.044"}, {"variant": "S76A", "abundance fitness": "0.05 ± 0.031"}, {"variant": "K64G", "abundance fitness": "-0.449 ± 0.037"}, {"variant": "K64S", "abundance fitness": "-0.226 ± 0.042"}, {"variant": "A13C", "abundance fitness": "-0.156 ± 0.048"}, {"variant": "A13F", "abundance fitness": "-0.84 ± 0.2"}, {"variant": "A13W", "abundance fitness": "-0.913 ± 0.14"}, {"variant": "N40A", "abundance fitness": "-0.055 ± 0.038"}, {"variant": "N40P", "abundance fitness": "-0.005 ± 0.046"}, {"variant": "N40E", "abundance fitness": "0.108 ± 0.04"}, {"variant": "N40Y", "abundance fitness": "-0.007 ± 0.084"}, {"variant": "N40S", "abundance fitness": "0.022 ± 0.041"}, {"variant": "M60A", "abundance fitness": "-0.168 ± 0.035"}, {"variant": "M60S", "abundance fitness": "-0.377 ± 0.055"}, {"variant": "M60Q", "abundance fitness": "-0.546 ± 0.095"}, {"variant": "S6Y", "abundance fitness": "0.126 ± 0.057"}, {"variant": "S6W", "abundance fitness": "0.098 ± 0.03"}, {"variant": "S6V", "abundance fitness": "0.062 ± 0.027"}, {"variant": "S6K", "abundance fitness": "0.091 ± 0.033"}, {"variant": "S6P", "abundance fitness": "0.059 ± 0.041"}, {"variant": "S6D", "abundance fitness": "-0.092 ± 0.042"}, {"variant": "S6C", "abundance fitness": "0.058 ± 0.042"}, {"variant": "D7K", "abundance fitness": "0.029 ± 0.4"}, {"variant": "D7W", "abundance fitness": "0.143 ± 0.17"}, {"variant": "D7G", "abundance fitness": "0.064 ± 0.12"}, {"variant": "D7Q", "abundance fitness": "0.211 ± 0.17"}, {"variant": "S77R", "abundance fitness": "0.054 ± 0.045"}, {"variant": "S77F", "abundance fitness": "-0.155 ± 0.13"}, {"variant": "S77M", "abundance fitness": "-0.17 ± 0.078"}, {"variant": "S77H", "abundance fitness": "-0.011 ± 0.079"}, {"variant": "S77W", "abundance fitness": "-0.105 ± 0.065"}, {"variant": "S77D", "abundance fitness": "-0.003 ± 0.064"}, {"variant": "Q11N", "abundance fitness": "0.025 ± 0.078"}, {"variant": "Q11H", "abundance fitness": "0.017 ± 0.073"}, {"variant": "Q11K", "abundance fitness": "0 ± 0.047"}, {"variant": "Q11G", "abundance fitness": "-0.103 ± 0.027"}, {"variant": "T36N", "abundance fitness": "0.052 ± 0.066"}, {"variant": "T36E", "abundance fitness": "0.056 ± 0.033"}, {"variant": "T36Y", "abundance fitness": "0.026 ± 0.071"}, {"variant": "D29G", "abundance fitness": "-0.239 ± 0.027"}, {"variant": "D29H", "abundance fitness": "-0.249 ± 0.061"}, {"variant": "D29Y", "abundance fitness": "-0.251 ± 0.063"}, {"variant": "D29Q", "abundance fitness": "-0.04 ± 0.04"}, {"variant": "D29F", "abundance fitness": "-0.649 ± 0.098"}, {"variant": "D29W", "abundance fitness": "-0.588 ± 0.049"}, {"variant": "Q27N", "abundance fitness": "-0.419 ± 0.096"}, {"variant": "Q27I", "abundance fitness": "-0.222 ± 0.067"}, {"variant": "Q27C", "abundance fitness": "0.045 ± 0.054"}, {"variant": "K14M", "abundance fitness": "-0.082 ± 0.093"}, {"variant": "K14L", "abundance fitness": "-0.058 ± 0.053"}, {"variant": "K14G", "abundance fitness": "-0.251 ± 0.057"}, {"variant": "K14E", "abundance fitness": "0.018 ± 0.081"}, {"variant": "K14S", "abundance fitness": "-0.073 ± 0.051"}, {"variant": "K14V", "abundance fitness": "-0.134 ± 0.054"}, {"variant": "K69Y", "abundance fitness": "0.138 ± 0.16"}, {"variant": "K69A", "abundance fitness": "-0.094 ± 0.07"}, {"variant": "K69W", "abundance fitness": "-0.288 ± 0.16"}, {"variant": "K69Q", "abundance fitness": "-0.003 ± 0.087"}, {"variant": "K69D", "abundance fitness": "-0.264 ± 0.14"}, {"variant": "F25T", "abundance fitness": "-0.632 ± 0.079"}, {"variant": "F25S", "abundance fitness": "-0.513 ± 0.049"}, {"variant": "L66A", "abundance fitness": "-0.137 ± 0.034"}, {"variant": "L66S", "abundance fitness": "-0.423 ± 0.041"}, {"variant": "L66D", "abundance fitness": "-0.767 ± 0.23"}, {"variant": "L66P", "abundance fitness": "-0.437 ± 0.064"}, {"variant": "K22T", "abundance fitness": "-0.143 ± 0.05"}, {"variant": "K22L", "abundance fitness": "-0.04 ± 0.035"}, {"variant": "K22E", "abundance fitness": "0.057 ± 0.035"}, {"variant": "K22I", "abundance fitness": "-0.273 ± 0.068"}, {"variant": "K22M", "abundance fitness": "-0.073 ± 0.046"}, {"variant": "K22S", "abundance fitness": "-0.131 ± 0.041"}, {"variant": "L37I", "abundance fitness": "0.063 ± 0.083"}, {"variant": "L37W", "abundance fitness": "-0.201 ± 0.033"}, {"variant": "L37F", "abundance fitness": "-0.053 ± 0.076"}, {"variant": "T45H", "abundance fitness": "-0.066 ± 0.062"}, {"variant": "T45L", "abundance fitness": "-0.127 ± 0.033"}, {"variant": "G24A", "abundance fitness": "-0.598 ± 0.04"}, {"variant": "G24H", "abundance fitness": "-0.466 ± 0.1"}, {"variant": "G24T", "abundance fitness": "-0.914 ± 0.081"}, {"variant": "G24L", "abundance fitness": "-0.789 ± 0.048"}, {"variant": "G24D", "abundance fitness": "-0.572 ± 0.067"}, {"variant": "A33H", "abundance fitness": "-0.002 ± 0.075"}, {"variant": "A33K", "abundance fitness": "-0.264 ± 0.061"}, {"variant": "A33F", "abundance fitness": "-0.329 ± 0.083"}, {"variant": "S56P", "abundance fitness": "0.044 ± 0.047"}, {"variant": "S56G", "abundance fitness": "-0.101 ± 0.03"}, {"variant": "T46L", "abundance fitness": "-0.103 ± 0.032"}, {"variant": "T46P", "abundance fitness": "-0.697 ± 0.082"}, {"variant": "T46W", "abundance fitness": "-0.307 ± 0.039"}]}]}
